Patent publication US20220206001A1 (TWIST BIOSCIENCE, published 2022)

B1: Ab-89 (antibody, V domains shown)
VH: EVQLVESGGGLVQPGGSLRLSCAASGIPSTLRAMGWFRQAPGKEREFVALINRSGGSQFYADSVKGRFTISADNSKNTAYLQMNSLKPEDTAVYYCAIGRGSWGQGTLVTVSS
B2: Ab-7 (antibody, V domains shown)
VH: EVQLLESGGGLVQPGGSLRLSCAASGFTFSDFAMAWVRQAPGKGLEWVSAISGSGDITYYADSVKGRFTISRDNSKNTLYLQMNSLRAEDTAVYYCAREADGLHSPWHFDLWGQGTLVTVSS
VL: DIQMTQSPSSLSASVGDRVTITCRASQSIHTYLNWYQQKPGKAPKLLIYAASALASGVPSRFSGSGSGTDFTLTISSLQPEDFATYYCQQSYSAPPYTFGQGTKVEIK

What was measured:
[1] = biological target: SARS-CoV-2 nucleocapsid protein (SARS-CoV-2, UniProt P0DTC9 1-419); assay: lateral flow screen with nucleocapsid protein, capture antibody
SARS-CoV S1 monomer = biological target: T1, SARS-CoV S1 monomer (SARS-CoV, UniProt P59594 14-667); assay: SPR (Carterra LSA)
T1 construct: domain: S1

| Binder | binding result [1] | binding result (SARS-CoV S1 monomer) |
| --- | --- | --- |
| B1 | binds | – |
| B2 | – | binds |
